These results are taken from paper PMC3130014, “The Cryo-EM Structure of a Complete 30S Translation Initiation Complex from Escherichia coli” (PLoS Biology, 2011).

The target in the assay is T1, initiation factor 2 (IF2α) from E. coli (E. coli, UniProt P0A705 1-890).
T1 construct: Translation initiation factor IF2, alpha form (IF2α), E. coli; CTD: G2 391-559, G3 560-672, C1 673-779, C2 780-890); source: prepared as described [14]
Briefly: cryo-EM structure; 30S IC reconstituted from 30S subunits (0.1 µM), IF1 (0.3 µM), IF2α (0.2 µM), IF3 (0.3 µM), 002 mRNA (0.6 µM), fMet-tRNA^fMet (0.6 µM), GDPNP (0.5 mM); 37°C 15 min, buffer A (50 mM Tris-HCl pH 7.5, 70 mM NH4Cl, 30 mM KCl, 7 mM MgCl2); class 2 map at 18.3/15 Å; rigid-body and flexible fitting of a homology model of IF2. As to conditions: both partners purified.

T1 sequence (P0A705 whole entry): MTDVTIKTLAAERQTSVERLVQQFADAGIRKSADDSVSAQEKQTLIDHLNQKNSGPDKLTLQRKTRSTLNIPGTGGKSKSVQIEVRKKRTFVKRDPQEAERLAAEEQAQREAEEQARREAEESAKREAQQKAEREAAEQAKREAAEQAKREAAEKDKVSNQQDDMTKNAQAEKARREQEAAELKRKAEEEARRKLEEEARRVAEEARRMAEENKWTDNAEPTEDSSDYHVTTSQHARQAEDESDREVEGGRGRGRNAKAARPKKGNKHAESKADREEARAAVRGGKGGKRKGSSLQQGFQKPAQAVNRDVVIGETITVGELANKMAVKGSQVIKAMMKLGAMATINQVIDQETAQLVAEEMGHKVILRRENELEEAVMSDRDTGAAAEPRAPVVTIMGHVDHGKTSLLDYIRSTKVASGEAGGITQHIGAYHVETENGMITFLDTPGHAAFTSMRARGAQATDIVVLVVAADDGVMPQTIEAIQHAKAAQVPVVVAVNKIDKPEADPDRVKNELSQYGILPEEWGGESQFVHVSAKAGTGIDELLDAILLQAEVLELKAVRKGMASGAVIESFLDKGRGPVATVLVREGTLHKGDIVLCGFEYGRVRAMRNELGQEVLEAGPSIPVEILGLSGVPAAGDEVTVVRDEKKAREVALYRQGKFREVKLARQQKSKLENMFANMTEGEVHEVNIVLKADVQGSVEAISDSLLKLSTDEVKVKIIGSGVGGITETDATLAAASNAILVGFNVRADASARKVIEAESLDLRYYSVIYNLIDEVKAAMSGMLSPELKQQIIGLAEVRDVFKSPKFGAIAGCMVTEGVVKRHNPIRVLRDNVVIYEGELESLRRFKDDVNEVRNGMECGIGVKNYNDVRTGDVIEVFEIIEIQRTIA

B1: initiation factor 1 (IF1) from E. coli (natural protein, UniProt P69222 1-72, looked up)
chain: MAKEDNIEMQGTVLETLPNTMFRVELENGHVVTAHISGKMRKNYIRILTGDKVTVELTPYDLSKGRIVFRSR
notes: Translation initiation factor IF1, E. coli; source: prepared as described [14]
Regarding B1, the binding result was “binds”.
